The supplement of paper PMC9170038

The sequences below were run on MS2 coat protein (assay: apparent KD of MS2 coat protein; higher = weaker reporter binding). Details: Eterna round: R107; input ligand: theophylline 2 mM.
How it was run: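 Designed RNA switches were transcribed on-chip from Illumina sequencing clusters. SNAP-549-labelled MS2 coat protein was titrated onto them in twofold steps from 0.7 or 1.5 nM to 3 µM in 100 mM Tris-HCl pH 7.5, 80 mM KCl, 4 mM MgCl2, either without or with constant ligand. Apparent KD reflects the per-design median of normalised cluster binding-curve fits.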

Row | Sequence | apparent KD of MS2 coat protein
1 | GUGUGGCGCUCGGCCGCCACUCAGACAUGAGGAUCACCCAUGUAGAACAUGAGGAUCACCCAUGUGAGGACCGGGAGACACACGA [Exclusion Tryptophan B GF11] | 404 nM
2 | AGGACGGCCGGAAGGAGCGGUACAUGAGGAUCACCCAUGUACCUCUGGGCAUCCGUAGUGUGCCAGGUAGGUCGCCGGUUGCGGG [Veatgema] | 12.1 nM
3 | AGCACUGUGACGGCCGCCACUAUAUUAGGGUGGUAGGGUUCAUAAAUACAUGAGGAUCACCCAUGUAGGACCGGGUCUCAGUGCA [Omei Trp Exc B A v1] | 10 nM
4 | UCGAAUGCGGCGGCCGCCACUCGCGGAUAACGAUAGCUUAACAUGAGGAUCACCCAUGUGUCAUGGAGGACCGGGCCCAUACCGU [azamullin] | 26.6 nM
5 | UACAUGAGGAUCACCCAUGUGUAACCAGAAGGAGCGUGCGAAAGCACAGGUAGGUCGCUGGUGGGUUUAGGUUUAAUAGGUGUAU [SSAA NP+V+V2 #4 +-Same Structure] | 40.6 nM
6 | UACUUGCUGACGGCCGCCACUAGAACAUGAGGAUCACCCAUGUAUCUAGUGGCAAUCCUCAUGACUAGGACCGGGUCAGCAAGAU [(Trp1)-(Ms2)-(T)'-(M)'-(Trp2)_Design1] | 9.58 nM
7 | UCGUGUAUUUCGGAUACCAGUGAAAUCGAUACAUGAGGAUCACCCAUGUGAGAGGAUGUACACCCUUGGCAGCUGUAUAUAUCUG [fgfmullin] | 24.8 nM
8 | GAGCUCGUGGACUGGCGUGCUCCGCUCCGUCGAGGACCGGUACGGCCGCCACUCGACAUGAGGAUCACCCAUGUGCGAGCUCGCU [#1 Exclusion - Tryptophan A Attempt #22 (HarryS)] | 117 nM

Same assay, conditions: Eterna round: R107; input ligand: tryptophan 2.4 mM

Row | Sequence | apparent KD of MS2 coat protein
9 | AUUGACGUUGCGGCCGCCACUAGGCGUUCCCGGACAUGAGGAUCACCCAUGUGCUAGAGUGUAACUAGGACCGGGUAACCUCAGC [Verevean] | 176 nM
10 | GCGGGACUUUCGGCCGCCACUGAGAGAGUCGUGUGAACAUGAGGAUCACCCAUGUAAUAUAUAUACAGGACCGGGAGGGUUGCGC [4.Q] | 12.8 nM
11 | UGUUUGGUGCGCGAGUGUUGGAUAAUUGAUACCAGUGUAGAUGUGCGCCCUUGGCAGCGAAUCCGAACAUGAGGAUCACCCAUGU [5.Z] | 29.5 nM
12 | GCUACAUGAGGAUCACCCAUGUCAGCUACACGAGGACCGGUACGGCCGCCACUCGGUAGCGCUCAUCCUCGUGUGUAAGUCAAGU [Xedier] | 23.5 nM
13 | AGCUCGCAUCCUCUAGCGUCAAAGACGCCUCGAGGACCGGUACGGCCGCCACUCGAUAUGAGGAUCACCCAUAUCAAAGCGAGCA [TrypAX 2 #SwitchBubble #AlternativeMS2 #MS2Late #CuTurnoff] | 581 nM
14 | GCACCAGGUACGGAUACCAGAAUUUGCCAAUUGGGUGAACAUGAGGAUCACCCAUGUUAUUUCCCUUGGCAGCCGUACCUGGUGC [ETB NP+V+V2 #10] | 9.45 nM
15 | UGUAUGGACUGAAGGAGCGGUUGAUAACAUGAGCAUCAGCCAUGUAAUAAGGCGAAAGCCAACCAGGUAGGUCGCAGUCCAUACU | 14.8 nM
16 | GGAUAGGACACGGCCGCCACUACCUAGGAUACUAGCAACAUUUGGGUACACGAGGAUCACCCGUGUAGGACCGGGUGUCCUAUCG | 19.2 nM
17 | GGUUUGCGGCCUGAUACCAGUGAUGGAUGAACCCUAGUCAACAUGAGGAUCACCCAUGUUCACCCUUGGCAGCAGUGACGCUCGA [theeternabot_exclusion_MS2_Theo_B_34] | 74.1 nM
18 | GCCGCGGCCGCGAUACACAUGGGUGUGUAACGAGGACCGGUACGGCCGCCACUCGAGAUGGUGCACAUGAGGAUCACCCAUGUGC [Exclusion Tryp A GF15] | 12.1 nM
19 | UGUAUGUGAUCUGAUACCAGCUAGCGGAAACGCAAAAGCUUGAGGAUCACCCAAGUGGAAAGCCCUUGGCAGCAGAUCGCAUACU [Denovo 1 #StaticStem #AlternativeMS2] | 17.4 nM
20 | AUCGUACCUGAUGAUACCAGCAAUUGCUCGUAACAUGAGGAUCACCCAUGUGACCAGUGAUGCCCUUGGCAGCAUGGUCGGUGCA [Same State - Theophylline B (Freestyle 21)] | 150 nM
21 | GGGCCUAUAAGCAGGCCCACAGCGGGUGAUACCAGCAAUAAAACUUGCCCUUGGCAGCACACAGCUACAUGAGGAUCACCCAUGU [Beator] | 62.4 nM
22 | UAUAUAUAUAUUGAUACCAGCAGAGAAAACGUUUAUCCUAACAUGAGGAUCACCCAUGUAUGCCCUUGGCAGCGGUAUAUAUAUA [8.D] | 22.6 nM
23 | CAUGUUGUUGAAGAUACCAGAUUCUGAACGUUCACAUGAGGAUCACCCAUGUAAGUCCGAGUCCCUUGGCAGCUUAUACAGGUGG [Reatlala] | 47.7 nM
24 | UGUAUGUGAUCUGAUACCAGAGUGACGCGAAAGCGAACCUGAGGAUCACCCUGGUAAUAACUCCCUUGGCAGCAGAUCGCAUACU | 69.8 nM

Row | Sequence | apparent KD of MS2 coat protein
25 | GCUACAUGAGGAUCACCCAUGUGUACUGAAGGAGCGGCGAAAACGCCAGGUAGGUCGCAGUAUGUGGCUCUGGGCACGAGAUGGC [#02 Same State - Arginine A] | 30.5 nM
26 | AGUGUUAUAACUGAUACCAGACCUUUGCUUAUACAUGAGGAUCACCCAUGUAAAAUGGCGGUCCCUUGGCAGCAGAGAAUACACA [#08 Same State - Theophylline B] | 36.3 nM
27 | UCAUAUUAGUGAGAUGUAAGGUAUCAUGAUACCAGUAGAUAAUUAUACCCUUGGCAGCAUAACAUGAGGAUCACCCAUGUACAUG [Ab] | 19.8 nM
28 | UUUUUUAACAUGGCGUAUCGGAAAACCGAUACCAGUACAGAAAUGUACCCUUGGCAGCGGCGUUUUACAUGAGGAUCACCCAUGU [Ex Theophylline A 3] | 27.7 nM
29 | ACAUGAGGAUCACCCAUGUAUGACUAUCCUCGAGGACCGGUACGGCCGCCACUCGAAGGAGUGGCUCGCGAGUGCGCACUUGCAA [5' end] | 11.5 nM
30 | GUCUUGGAAUCGGCCGCCACUACAUGAGGAUCACCCAUGUGGACAAAUAGGGUUUUUAAGCUCGGUAGGACCGGGAUUCGGACAU [Mamaon] | 66 nM
31 | GUGUGGCGCUCGGCCGCCACUCAGACAUGAGGAUCACCCAUGUAGAACAUGAGGAUCACCCAUGUGAGGACCGGGAGACACACGA [Exclusion Tryptophan B GF11] | 308 nM
32 | ACGUCUCGAAAACUCGUAGUAACAAUAGAUACCAGUAGCGAGAGUUACCCUUGGCAGCUACAUGAGGAUCACCCAUGUACGAGGA [XTheo A #27] | 18.1 nM
33 | AGGACGGCCGGAAGGAGCGGUACAUGAGGAUCACCCAUGUACCUCUGGGCAUCCGUAGUGUGCCAGGUAGGUCGCCGGUUGCGGG [Veatgema] | 10.8 nM
34 | AUUUUUCUAUCAGAUACCAGACAACUCCAAACAUGAGGAUCACCCAUGUAUUGGGUGUUCGUCCCUUGGCAGCUGUUAAUGUUAA [JR_SSTheophyB_Sub003] | 16.9 nM
35 | AGCACUGUGACGGCCGCCACUAUAUUAGGGUGGUAGGGUUCAUAAAUACAUGAGGAUCACCCAUGUAGGACCGGGUCUCAGUGCA [Omei Trp Exc B A v1] | 21.2 nM
36 | CAAGAAGUAACUGAUACCAGUGUACUGACAUGAGGAUCACCCAUGUUGGGUUUUGUUGUACACCCUUGGCAGCAGAAUCUUCUUG [AstrosExyTheB#22] | 58.1 nM
37 | UACAUGAGGAUCACCCAUGUGUAACCAGAAGGAGCGUGCGAAAGCACAGGUAGGUCGCUGGUGGGUUUAGGUUUAAUAGGUGUAU [SSAA NP+V+V2 #4 +-Same Structure] | 34.6 nM
38 | AGCGACAUGCGUGAUACCAGCUACAUGAGGAUCACCCAUGUCAGUAGGAAACUGCUGUGUAGCCCUUGGCAGCACAGUGCAUGUC [Exclusion - Theophylline B (Freestyle 27)] | 36.4 nM
39 | UCGUGUAUUUCGGAUACCAGUGAAAUCGAUACAUGAGGAUCACCCAUGUGAGAGGAUGUACACCCUUGGCAGCUGUAUAUAUCUG [fgfmullin] | 21.9 nM
40 | GAGCUCGUGGACUGGCGUGCUCCGCUCCGUCGAGGACCGGUACGGCCGCCACUCGACAUGAGGAUCACCCAUGUGCGAGCUCGCU [#1 Exclusion - Tryptophan A Attempt #22 (HarryS)] | 21.4 nM
